Data as given in US20250034549.

Tests used:
[1] = molecular target: v2.3 BE-VLP gag-ABE8e fusion
[2] = molecular target: v2.2 BE-VLP gag-ABE8e fusion
[3] = molecular target: v2.4 BE-VLP gag-ABE8e fusion
[4] = molecular target: v2.1 BE-VLP gag-ABE8e fusion

B1: MMLV protease (protein)
chain: TLDDQGGQGQEPPPEPRITLKVGGQPVTFLVDTGAQHSVLTQNPGPLSDKSAWVQGATGGKRYRWTTDRKVHLATGKVTHSFLHVPDCPYPLLGRDLLTKLKAQIHFEGSGAQVMGPMGQPLQVL
[1]
  fraction of cleaved ABE8e versus full-length gag-ABE8e present in purified BE-VLPs (western blot): the v2.4 linker is cleaved more efficiently than the v2.1 and v2.2 linkers, but less efficiently than the v2.3 linker
[2]
  fraction of cleaved ABE8e versus full-length gag-ABE8e present in purified BE-VLPs (western blot): the v2.4 linker is cleaved more efficiently than the v2.1 and v2.2 linkers, but less efficiently than the v2.3 linker
[3]
  fraction of cleaved ABE8e versus full-length gag-ABE8e present in purified BE-VLPs (western blot): the v2.4 linker is cleaved more efficiently than the v2.1 and v2.2 linkers, but less efficiently than the v2.3 linker
[4]
  fraction of cleaved ABE8e versus full-length gag-ABE8e present in purified BE-VLPs (western blot): the v2.4 linker is cleaved more efficiently than the v2.1 and v2.2 linkers, but less efficiently than the v2.3 linker
